Assay results: patent US20240034784A1 (published 2024)

Tests used:
hClaudin18.2 = hClaudin18.2 (human, UniProt P56856 1-261); test: FACS
CLDN18.2 = CLDN18.2 (human, UniProt P56856 1-261); test: FACS

B1: IMAB362 (antibody, V domains shown)
VH: QVQLQQPGAELVRPGASVKLSCKASGYTFTSYWINWVKQRPGQGLEWIGNIYPSDSYTNYNQKFKDKATLTVDKSSSTAYMQLSSPTSEDSAVYYCTRSWRGNSFDYWGQGTTLTVSS
VL: DIVMTQSPSSLTVTAGEKVTMSCKSSQSLLNSGNQKNYLTWYQQKPGQPPKLLIYWASTRESGVPDRFTGSGSGTDFTLTISSVQAEDLAVYYCQNDYSYPFTFGSGTKLEIKR
EC50 (hClaudin18.2): 6.72 nM | EC50 (CLDN18.2): 19.1 nM
